Test: yeast display, Sf9 membrane polyspecificity reagent, FACS + sequencing; frameworks hold sequencing errors
In short: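 After 36–48 hours of galactose induction, yeast (Saccharomyces cerevisiae BJ5465) displaying a synthetic nanobody library were stained at 4 °C for 1 hour with 10% biotinylated, detergent-solubilized Sf9 membrane reagent. Streptavidin microbeads enriched the stained cells before FACS sorting into low and high (top ~1%) gates on anti-HA and streptavidin fluorescence. Each clone's polyreactivity label reflects its gate of origin.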

Row | Sequence | polyreactivity (PSR sort gate)
1 | QVQRVESGGGLVQAGGSRRLTCAASGRTSVPYARGWYRQAPGKERELVAAITSGGSTYYADSVKGRFTISRDNAKNTVYLQMNSLKPEDTAVYYCAASLPHSAPYTASYGSWGQGTQVTVSS | low polyreactivity
2 | QVQLVESGGGLVQAGGSLRLSCAASGFIFKAYAMGWYRHAPGKERELVAAITSSGGRTYDADSVKGRFTISRDNAKNTVYLQKNSLKPEDTAVYYCNARGVLRTSLYRYDYWGQGTQVTVSS | high polyreactivity
3 | QVQLVESGAGLVQAGGSLRLSCAASGSTFRSNAMGWYRPAPGKEREFVASITSRGGPTYYADSVKGRFTISRDNAKNTVYLQMKSLKPEDTAVYYCASARSYLTYFYHYDYWGQGTQVTVSS | low polyreactivity
4 | QVQLVESGGGLVQAGGSLRLICAASGRIFGANAMGWYIQAPGKERELVAAISRTGGSKYYADSVKGRFTISRDNAKNTVYLQMNSLKPEDTAVYYCNAVYRYAHPMEYWGQGTQVTVSS | high polyreactivity
5 | QVQLVESGGGLVQAGGSLRLSCAASGSIFYDYALGWYRQAPGKERELVAAINSGDSTYYADSVKGRFTISRDNAKNTVYLQMNSLKPEDTAVYYCAATYFSPFIEYDYWGQGTQVTVSS | low polyreactivity
6 | QVQLVESGGGLVQAGGSLRLSCAASGRIFGTNAMGWYRQAPGKERELVADITSGGSTNYADSVKGRFTISRDNAKNTVYLQMNSLKPEDTSVYYCAATWYGYYSRYDFYYWGQGTQVTVSS | low polyreactivity
7 | QVLLVDSGGGLVQAGGSLRLSCAASGRIFGPYTMARYIQAPGPERELVAAISWSGGSTYYADSVKGRFTISRDNAKNNVFLQMNSLKPEDSAVYYCNAYHPFPQYEGGSWGQGTQVTVSS | low polyreactivity
8 | QVQLVESGGGLVQAGGSLRLSCAASGLIFQYYAMGWSRQAPGKERELVASISWSGSSTYYADSVKGRFTISRDNAKNTVYLQMISLKPEDTAVYYCAAGWGRGWYDYWGQGTQVTVSS | high polyreactivity
9 | QVQLVESGGGLVQAGASLRLSCAASGSTFYGNTMGWYRQAPGKERELVAAITSTGRTYYADSVKGRFTLSRDNAKNTVYLQMNSLKPEDTAVYYCAASQRRRFQRPSFDYWGQGPQVTVSS | high polyreactivity
10 | QVQLVESGGGLVQAGGSLRLSCAATGFTFTLYAMGWYRQAPGKERALVAAITRLGTSTYYADSVKGRFTISRDNAKNTVYLQMNNLKPEDTAVYYCAARGGGGQRYDYWGHGTQVTVSS | high polyreactivity
11 | QVQLVESGGGLVQAGGSLRLSCAASGRIFRYYAMGWYRQAPGKERELVAAITRGGSTNYADSVKGRFTISRDNAKNTVYLQMNSLKPEDTAVYYCAVRGGYTWPTYNYWGQGTQVTVSS | high polyreactivity
12 | QVQLVESGGGLVQAGGSLRLSCAASGFIFVRNAMVWYRQAPGIERELVAAIRWSGGSTYYADSVKGRFTISRDNAKNTVYLQMNSLKPEDTAVYYCAKEPPPVKGDYWGQGTQVTVSS | low polyreactivity
13 | QDQLVESGGGLVQAGGSLRLSCAASGSIFWVYVMGWYSQAPGKERELVAAITNGGSTDYADSVKGRFTISRDNAKNTVYLQLNSLKPEDTAVYYCAKRSPIWGRILITYDYWGQGTQVTVSS | low polyreactivity
14 | QHQLEESGGGLVQAGGSLRLSFAAYGFIFGRYTMGWYRQAPVKERELVAAISSRGGSTYYADSVKGGFTISRDYAKYTVYLQMNSLNPEDTAVYSCNALRRPSSEGRDYWGQGTQVTVSS | high polyreactivity
15 | QVQLVESGVGLVQAGGSLRLSCAASGSTYRYAMGWYRQAPGKERELVAAISRSTGSTYYADSVKGRLTISRDNANNTVNLQMNRLKPEDTAVYYCARDVYYRGYKYGYWGQGTQVTVSS | high polyreactivity
16 | QVQLVESGGGLVQAGGSLRLSCSASGFTFRSYAMGWYRQAPGEEREFVAAISRRGDSTYYADSVKGRFTISRDNAKNTVYLQMNSLKPEDTAVYYCAKYGIASRYSRFDSWGQGTQVTVSS | high polyreactivity
17 | QVQLVESGGGLVQAGGSLRLSCAASGRIFYYNDMGWYRQAPGKERELVAAITWTDDGTYYADSVKGRFTISRDYAKNTVYLQMNSLKPEDTAVYYFAAETFYGFEYWGQGTQVTLSS | low polyreactivity
18 | QVQLVESGGGLVQAGGSLRLSCAASGRTFGYYTMGWYRQAPGKEREFVAAISGSGTITFYADSVKGRFTISRDNAKNTVYLQMNSLKPEDTAVYYCAADYRYGGSRGYRYDYWGQGTQVTVSS | low polyreactivity
19 | QVQLVVSGGGLDQARGSLRLSCAASGSNFFYYAMGWYRQAPWKERELVAGINWSGGSTYADSVKGRFTISRDNAKNTVYLQMNSLKPEDTAVYYCAAKFYSERSSYHYWGQGTQVTVSS | low polyreactivity
20 | QVQLVESGGGLVQAGGSLRLSCAASGRTFSSYAMGWYRQAPGKEREFVAAINKNGGSTFYADSVKGRFTISRDNAKNTVYFQMNSLKPEDTAVYYCNADTDWWNPYNYWGQGTQVTVST | low polyreactivity
21 | QLQLVESGGGLVQAGGSLRLSCAASGLIFYDNMGWYRQAPGKERELVAAISSSGGSTSYADSVKGRFTISRDNAKNTVYLHMNSLKPEDTAVYYCAADSYPAYLGFVGFDYWGQGTQVTVSS | low polyreactivity
22 | QVQLVESGGGLVQAGCSLRLSCAASGSTFDNYAMGWYRQAPGKERELVAAISSSGTRTYYADSVKGRFTISRDNAKNTVYLQMNSLKPEDTAVYYCAAGGHYYSSPGYNYWGLGTQVTVSS | high polyreactivity
23 | QVQLVESGGGLVQAGGSLRLSCAASGSILGTYAMGWYRQAPGKERELVAAISSSGRTSYADSVKGRFTISRDNAKNTVYLQMNSLKPEDTAVYYCNASNYIVLINDPDAAPWLYDYWGQGTQVTVSS | low polyreactivity
24 | QVQLVESGGGLVQAGGSLRLSCAASGFIFDEYAMGWYRQAPGKERELVAAISWSGSRTYYADSVKGRFTISRDNAKNTVYLQMNSLKPQDTAVDYCAKVTAVGAGRRNYWGQGTQVTVSS | low polyreactivity
25 | QVQLVESGGGLVQAGGSLRLSCAASGSIFTGYAMGWYRQAPGKERELVAAISWSGGSTSYADSVKGRFTISLDKAKNDVYLQMNSLKPEDTAVYYCAAERKARTYGYWGQGTEVTVSS | high polyreactivity
26 | QVQLVESGGGLVQAGGSLRLSCASSGRTFARNVMGWYRQAPGKERELVAAIRGSGGSTYYADSLKGRFTISRDNGKNTVYLQMNSLKTEDTAVYYCAADSSYTKRHSPTKLHFDYWGQGTQVTVSS | high polyreactivity
27 | QVHLVESGRGLFQAGGSLRLSCAASGYTFGPYDMGGYRQAPGKERELVAGITLSGGITYYADSVKGRFTISRDNAKNTVYLQMNSLKPQDTAVSYCAAAFYVSYSVIYEYWGHGTQVTVSS | high polyreactivity
28 | QVQLVESGGGLVQAGGSLRLSCAASGFTFAYNAMGWYRQAPGKEREFVAAITSSGGSTYYADSVKGRFTISRDYAKNTVYLQMNSLKPEHTAVYYCNAYYTFPRYQYGYWGQGTQVTVSS | high polyreactivity
29 | QVQLVESGGGLVQAGGSLRLSCAASGSTFRGYAMGWYRQAPGKERELVAAIISDGTTNYADSVKGRFTISRDNAQTTVYLQMNSLKPEDTAVYYCNAEVQGGRPQFDYWGQGTQVTVSS | low polyreactivity
30 | QVQLEESGGGLVQAGGSLRLSCAASGITIWGYTMGWYRQAPGKERELVAAITSTGSTYYADSVKGRFTISRDNAKNTVYLQMNSLKPEDTSVYYCAATRGSSEYYYWGQGTQVTVSS | low polyreactivity
